Fold increase in JF646 fluorescence with 50 nM rapamycin (E. coli lysates), increase in JF646 fluorogenic signal and increase in TMR labeling efficiency on raising the N:C fragment ratio from 1.25 to 10 data for seven molecules are collected here from patent US20240174992A1, “SPLIT MODIFIED DEHALOGENASE VARIANTS” (Promega Corporation, priority 2022, published 2024).

Experiment in all cases: cell-based or functional assay
The target in assay [1] is spHT 80 C-terminal fragment [81-297] fused to FRB or FKBP.
The target in assay [2] is spHT 157 C-terminal fragment [158-297] fused to FRB or FKBP.
Assay [3] addresses spHT 145 C-terminal fragment [146-297] fused to FRB or FKBP.
For assay [4], the target named is spHT 19 C-terminal fragment [20-297] fused to FRB or FKBP.
Assay [5] addresses spHT 133 C-terminal fragment [134-297] fused to FRB or FKBP.
Assay [6] has as its target spHT 180 C-terminal fragment [181-297] fused to FRB or FKBP.
The target of assay [7] is spHT 195 C-terminal fragment [196-297] fused to FRB or FKBP.

B1: spHT 80 N-terminal fragment [1-80] fused to FRB or FKBP (protein, part only; not given: FRB or FKBP partner, orientation, part only)
chain, part: MAEIGTGFPFDPHYVEVLGERMHYVDVGPRDGTPVLFLHGNPTSSYVWRNIIPHVAPTHRCIAPDLIGMGKSDKPDLGYF
In assay [1], B1 showed a fold increase in JF646 fluorescence with 50 nM rapamycin (E. coli lysates) above 2 fold.

B2: spHT 157 N-terminal fragment [1-157] fused to FRB or FKBP (protein, part only; not given: FRB or FKBP partner, orientation, part only)
chain, part: MAEIGTGFPFDPHYVEVLGERMHYVDVGPRDGTPVLFLHGNPTSSYVWRNIIPHVAPTHRCIAPDLIGMGKSDKPDLGYFFDDHVRFMDAFIEALGLEEVVLVIHDWGSALGFHWAKRNPERVKGIAFMEFIRPIPTWDEWPEFARETFQAFRTTDV
In assay [2], B2 had a fold increase in JF646 fluorescence with 50 nM rapamycin (E. coli lysates) above 2 fold.

B3: spHT 145 N-terminal fragment [1-145] fused to FRB or FKBP (protein, part only; not given: FRB or FKBP partner, orientation, part only)
chain, part: MAEIGTGFPFDPHYVEVLGERMHYVDVGPRDGTPVLFLHGNPTSSYVWRNIIPHVAPTHRCIAPDLIGMGKSDKPDLGYFFDDHVRFMDAFIEALGLEEVVLVIHDWGSALGFHWAKRNPERVKGIAFMEFIRPIPTWDEWPEFA
Consider B3, for which the fold increase in JF646 fluorescence with 50 nM rapamycin (E. coli lysates) in assay [3] was above 2 fold. Consider MAEIGTGFPFDPHYVEVLG (peptide, part only; not given: FRB or FKBP partner, orientation, part only) [spHT 19 N-terminal fragment [1-19] fused to FRB or FKBP], for which, in assay [4], the increase in JF646 fluorogenic signal at a N:C fragment ratio of 10 is 25% and the increase in TMR labeling efficiency on raising the N:C fragment ratio from 1.25 to 10 was above 100%.

B4: spHT 133 N-terminal fragment [1-133] fused to FRB or FKBP (protein, part only; not given: FRB or FKBP partner, orientation, part only)
chain, part: MAEIGTGFPFDPHYVEVLGERMHYVDVGPRDGTPVLFLHGNPTSSYVWRNIIPHVAPTHRCIAPDLIGMGKSDKPDLGYFFDDHVRFMDAFIEALGLEEVVLVIHDWGSALGFHWAKRNPERVKGIAFMEFIR
Molecule B4 had a fold increase in JF646 fluorescence with 50 nM rapamycin (E. coli lysates) in assay [5] above 2 fold.

B5: spHT 180 N-terminal fragment [1-180] fused to FRB or FKBP (protein, part only; not given: FRB or FKBP partner, orientation, part only)
chain, part: MAEIGTGFPFDPHYVEVLGERMHYVDVGPRDGTPVLFLHGNPTSSYVWRNIIPHVAPTHRCIAPDLIGMGKSDKPDLGYFFDDHVRFMDAFIEALGLEEVVLVIHDWGSALGFHWAKRNPERVKGIAFMEFIRPIPTWDEWPEFARETFQAFRTTDVGRKLIIDQNVFIEGTLPMGVVRP
B5: in assay [6], the fold increase in JF646 fluorescence with 50 nM rapamycin (E. coli lysates) is above 2 fold.

B6: spHT 195 N-terminal fragment [1-195] fused to FRB or FKBP (protein, part only; not given: FRB or FKBP partner, orientation, part only)
chain, part: MAEIGTGFPFDPHYVEVLGERMHYVDVGPRDGTPVLFLHGNPTSSYVWRNIIPHVAPTHRCIAPDLIGMGKSDKPDLGYFFDDHVRFMDAFIEALGLEEVVLVIHDWGSALGFHWAKRNPERVKGIAFMEFIRPIPTWDEWPEFARETFQAFRTTDVGRKLIIDQNVFIEGTLPMGVVRPLTEVEMDHYREPFLN
As to B6, the fold increase in JF646 fluorescence with 50 nM rapamycin (E. coli lysates) in assay [7] was above 2 fold.
